Test results: patent US20240084041A1 (Regeneron, published 2024)

Columns and labels:
Test in all cases: cell-based or functional assay
[1] = target: T1, MET on NCI-H596 cells (MET exon14 skip mutation) (human, UniProt P08581 25-1390)
[2] = target: T1, MET on NCI-H596 cells (MET exon14 skip …); remark: listed apart in the source
MET on EBC-1 cells = target: T2, MET on EBC-1 cells (human, UniProt P08581 25-1390)
T2 chain: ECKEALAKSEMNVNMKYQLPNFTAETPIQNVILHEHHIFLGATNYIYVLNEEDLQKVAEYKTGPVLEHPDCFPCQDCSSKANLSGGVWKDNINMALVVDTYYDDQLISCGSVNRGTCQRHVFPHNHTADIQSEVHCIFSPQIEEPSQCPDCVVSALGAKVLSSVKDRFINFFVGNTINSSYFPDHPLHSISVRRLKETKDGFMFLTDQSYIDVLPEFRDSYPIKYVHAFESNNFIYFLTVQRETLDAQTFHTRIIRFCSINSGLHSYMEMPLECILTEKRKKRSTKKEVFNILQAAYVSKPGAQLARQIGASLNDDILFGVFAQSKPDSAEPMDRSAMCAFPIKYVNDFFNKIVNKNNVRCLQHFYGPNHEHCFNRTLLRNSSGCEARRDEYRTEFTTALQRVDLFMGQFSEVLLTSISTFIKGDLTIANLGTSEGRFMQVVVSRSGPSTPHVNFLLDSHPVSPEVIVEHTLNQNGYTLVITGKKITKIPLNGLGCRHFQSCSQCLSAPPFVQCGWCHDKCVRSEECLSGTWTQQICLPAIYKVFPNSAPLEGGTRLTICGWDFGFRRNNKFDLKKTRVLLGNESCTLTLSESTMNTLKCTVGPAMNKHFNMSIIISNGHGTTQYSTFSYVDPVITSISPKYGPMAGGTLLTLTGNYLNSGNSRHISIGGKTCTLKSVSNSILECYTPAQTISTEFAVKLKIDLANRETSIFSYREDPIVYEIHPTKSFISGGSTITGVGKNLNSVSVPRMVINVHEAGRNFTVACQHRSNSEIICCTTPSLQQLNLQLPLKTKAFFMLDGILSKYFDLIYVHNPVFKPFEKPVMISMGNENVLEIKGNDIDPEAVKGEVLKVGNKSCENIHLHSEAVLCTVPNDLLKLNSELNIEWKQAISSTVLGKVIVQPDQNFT

Relative MET Level (immunoblot, 18 hours, 5 µg/ml, NCI-H596) [1]	Relative Cell Growth (n = 3), NCI-H596 in soft agar, 5 µg/ml, two weeks [2]	Relative Cell Growth (n = 3), EBC-1, 0.1 µg/mL, 5 days (MET on EBC-1 cells)	Relative Cell Growth (n = 3), EBC-1, 1 µg/mL, 5 days (MET on EBC-1 cells)	Binder
0.5 relative to hFc control	2.96 relative to control (no treatment)	–	–	H4H13306P2 (antibody, V domains shown) VH: EVQLVESGGGLVQPGTSLRLSCAASGFTFDDYAMHWVRQAPGKGLEWVSGITWNSYNIDYADSVKGRFTISRDNAKNSLYLQMNSLRAEDTALYYCAKDDDYSNYVYFDYWGQGTLVTVSS VL: not shown
0.35 relative to hFc control	1.69 relative to control (no treatment)	–	–	H4H13312P2 (antibody, V domains shown) VH: EVQLVESGGGLVQPGGSLRLSCAASGFIVTTNYMTWLRQAPGKGLEWVSLIYSSGHTYYADSVKGRFTISRHNSKNTLYLQMDSLRAEDTAVYYCASAFAADVFDIWGQGTMVTVSS VL: not shown
0.24 relative to hFc control	1.07 relative to control (no treatment)	0.397 relative to control	0.462 relative to control	H4H14639D Bispecific Antibody (bispecific antibody, V domains shown) VH 1: EVQLVESGGGLVQPGTSLRLSCAASGFTFDDYAMHWVRQAPGKGLEWVSGITWNSYNIDYADSVKGRFTISRDNAKNSLYLQMNSLRAEDTALYYCAKDDDYSNYVYFDYWGQGTLVTVSS VH 2: EVQLVESGGGLVQPGGSLRLSCAASGFIVTTNYMTWLRQAPGKGLEWVSLIYSSGHTYYADSVKGRFTISRHNSKNTLYLQMDSLRAEDTAVYYCASAFAADVFDIWGQGTMVTVSS VL: not shown
